Experiment [1] concerns the target Human C-type lectin-like molecule-1 (CLL-1) on cells (human) (UniProt Q5QGZ9). As to the kind of experiment: flow cytometry histogram on HL60 AML cells. Background: A flow cytometer gives signals particle by particle.
Experiment [2] has the same target. As to the kind of experiment: flow cytometry histogram on U937 AML cells.
For experiment [3] the target is unchanged. Briefly: flow cytometry histogram on THP-1 AML cells.
Experiment [4] has the same target. As to the kind of experiment: flow cytometry histogram on Molm13 AML cells.
For experiment [5] the target is unchanged. Briefly: flow cytometry histogram on Molm14 AML cells; the bold label in the same panel prints 67.1%.
Experiment [6] has the same target. Briefly: flow cytometry dot plot on Molm14 WT cells, CLL-1_APC_A against CD123_BV421_A (D-Q1: 0.14%, D-Q3: 0.28%, D-Q4: 18.03%); in the Molm14 CLL-1KO pool the same quadrant holds D-Q2: 10.47% and D-Q4: 89.48%.
Experiment [7] deals with T1, CLL-1-ECD (human, UniProt Q5QGZ9 65-265).
T1 construct: extracellular domain; also called CLL-1-ECD antigen
T1 sequence (looked up): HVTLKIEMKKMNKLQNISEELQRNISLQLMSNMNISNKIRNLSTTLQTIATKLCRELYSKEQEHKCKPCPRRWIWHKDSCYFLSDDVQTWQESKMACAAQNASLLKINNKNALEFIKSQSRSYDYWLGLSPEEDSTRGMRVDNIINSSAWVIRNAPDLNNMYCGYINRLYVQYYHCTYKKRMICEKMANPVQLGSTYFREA
Briefly: AlphaLISA; column head 'Affinity: Kd (M) by AlphaLISA'; clone printed as 56D01, FIG. 3A on the same sheet prints 65D01. How it is done: (§1) In order to characterize the antigen binding capacities of anti-CLL-1 scFv-Fc antibodies, an AlphaLISA sandwich assay was set up with Anti-6×His Acceptor beads, Protein A Donor beads, and CLL-1-ECD. By AlphaLISA assay, the Kd values of each anti-CLL-1 scFv-Fc antibody were determined.
Background: Bead proximity is the source of the signal in Alpha formats.

The target of experiment [8] is T1, CLL-1-ECD. Briefly: AlphaLISA; column head 'Affinity: Kd (M) by AlphaLISA'. How it is done:
as §1

For experiment [9], the target named is T1, CLL-1-ECD. Briefly: AlphaLISA sandwich assay with Anti-6xHis Acceptor beads, Protein A Donor beads and CLL-1-ECD. How it is done: as §1
The target of experiment [10] is T2, Human C-type lectin-like molecule-1 (CLL-1) on cells (human, UniProt Q5QGZ9 1-265).
T2 construct: whole, on cells; also called CLL-1 antigens; MICL
T2 sequence (looked up): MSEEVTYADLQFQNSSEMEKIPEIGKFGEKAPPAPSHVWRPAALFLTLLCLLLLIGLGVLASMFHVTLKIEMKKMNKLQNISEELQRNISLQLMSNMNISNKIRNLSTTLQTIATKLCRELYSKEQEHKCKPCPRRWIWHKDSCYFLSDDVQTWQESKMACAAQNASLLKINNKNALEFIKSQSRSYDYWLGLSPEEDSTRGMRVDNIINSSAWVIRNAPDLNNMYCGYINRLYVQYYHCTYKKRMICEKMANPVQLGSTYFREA
As to the kind of experiment: flow cytometry, overlaid histograms on K562-CLL-1 OFP cells; panel title 'Anti-CLL-1 scFv-Fc Abs_2 nM' (legend paragraph 56 says 0.2 nM); control: 2nd antibody only [B]. How it is done: FIG. 1 illustrates screening of the anti-CLL-1 antibodies disclosed herein by flow cytometry: (A) Representative flow cytometry dot plots. (B) Overlapping histograms. Each scFv-Fc antibody was stained at 0.2 nM with paired K562-CLL-1 and K562 cells, followed by staining with fluorochrome-conjugated 2nd antibody for flow cytometry analysis;
As illustrated in FIGS. 1A-B and 2, purified scFv-Fc antibodies were further assessed by flow cytometry for their binding to CLL-1 antigens of the K562-Luc-CLL-1 transfectant as well as the CLL-1+ AML cell line, U937, MOLM-14 and THP-1. K562 cells, a human erythroleukemic cell line, and Raji-Luc cells, a human B lymphoblastoid cell line, were used as the CLL-1-negative control cell lines. Each scFv-Fc antibody was screened with six cell lines, including K562, K562-CLL-1, U937, MOLM-14, THP-1 and Raji. Although the binding profiles of each clone varied with cell lines tested, the Top 3 clones with stronger binding pattern were selected, and the ranges of binding percentage were 52%˜99% for K562-Luc-CLL-1, 25%˜98% for U937, 6%˜37% for MLOM-14 and 1%-36% for THP-1.

In the case of “anti-human CLL-1-APC antibody (clone REA431)”, the % positive cells (gate D) in experiment [1] came out at 74.4%; in experiment [2] it was 99.3%; in experiment [3], 71%; in [4], 21.6%; in experiment [5], 67.6%. Besides, the % cells in quadrant D-Q2 (CLL-1 APC+ CD123 BV421+) in [6] was determined as 81.5%.

B1: anti-CLL-1 scFv-Fc antibody 65D01 (Fc fusion)
VH: QVQLQQWGAGLLKPSETLSLTCAVYGGSFSGYYWSWIRQPPGKGLEWIGEINHSGSTNYNPSLKSRVTISVDTSKNQFSLKLSSVTAADTAAYYCARSPLQWLDDAFDIWGQGTMVTVSS
VL: QSVLTQPPSVSAAPGQRVTISCSGSSSNIGSNYVSWYQQLPGTAPKLLIYDNNERPSGIPDRFSGSKSATSATLDITGLQTGDEADYFCGTWDNSPSTDWVFGGGTKVTVLG
notes: also called anti-CLL-1-65D01
By Kd is commonly meant the concentration at which binding is half-saturated. A lower Kd goes with higher affinity. Molecule B1 yielded a Kd in experiment [7] of 2.8 nM.

B2: anti-CLL-1 scFv-Fc antibody 72C10 (Fc fusion)
VH: EVQLVESGGGLVQPGGSLRLSCAASGFTFSVNAMHWVRQAPGKGLEWVSTISGSDGHKYYADSVKSRFTISRDNSKNTLYLQMNSLRAEDTAVYYCARDVDSEIGDGYHEDIWGQGTLVTVSS
VL: DIQMTQSPSSLSASVGDRVTITCRASQSVTNALNWYQQKPGKAPKLLIYAASNLQSGVPSRFSGSGSGTDFTLTISSLQPEDFATYYCQQTNNSPATFGQGTKVEIKR
notes: also called anti-CLL-1-72C10
Usually EC50 (read off the curve) stands for the concentration needed to bring the measured effect to its halfway point. The molecule B2 returned a Kd in experiment [8] of 1.1 nM. The “EC50 (read off the curve)” value in experiment [9] was roughly 1 nM.

B3: 59A09 (Fc fusion)
VH: EVQLVESGGGLVQPGGSLRLSCAASGFTFTDYYIHWVRQAPGKGLEWVSMISPSGGGEAYYADSVKGRFTISRDNSKNTLYLQMNSLRAEDTAVYYCARAHDFDDFDYWGQGTLVTVSS
VL: DIQMTQSPSSLSASVGDRVTITCRASQSIRYSLAWYQQKPGKASKLLIYDASTLQSGVPSRFSGSGSGTDFTLTISSLQPEDFATYYCQQYNNSPLTFGQGTKVEIK
notes: anti-CLL-1 scFv-Fc clone; also called anti-CLL-1-59A09; K562-CLL-1 OFP 59A09
With B3, the binding result in [10] is on record as “binds”.

B4: 61A07 (Fc fusion)
VH: EVQLVESGGGLVQPGGSLRLSCAASGFTFSNHWMHWVRQAPGKGLEWVSSISGAGGGKSYADSVKGRFTISRDNSKNTLYLQMNSLRAEDTAVYYCARDESSYAYDGDYWGQGTLVTVSS
VL: DIQMTQSPSSLSASVGDRVTITCRANQSIRNYLNWYQQKPGKAPKLLIYAASTLQSGVPSRFSGSGSGTDFTLTISSLQPEDFATYYCQQNTSSPSTFGQGTKVEIK
notes: anti-CLL-1 scFv-Fc clone; also called anti-CLL-1-61A07; K562-CLL-1 OFP 61A07
For the molecule B4, in [10], the binding result is recorded as “binds”.

B5: anti-CLL-1 scFv-Fc antibody 61H08 (Fc fusion)
VH: EVQLVESGGGLVQPGGSLRLSCAASGFTFDDYGMHWVRQAPGKGLEWVSGIWPSGGNKEYADSVKGRFTISRDNSKNTLYLQMNSLRAEDTAVYYCARLLALTYDYFDYWGQGTLVTVSS
VL: DIQMTQSPSSLSASVGDRVTITCRASQGISSYLAWYQQKPGKAPKLLIYDASTLQSGVPSRFSGSGSGTDFTLTISSLQPEDFATYYCQQSYSTPFTFGQGTKVEIKR
notes: also called anti-CLL-1-61H08
Consider B5, for which binding in experiment [8] was characterised by a dissociation constant (Kd) of 4.9 nM.

The record behind these values is patent US20240398863A1 (ARCE THERAPEUTICS, published 2024).
